In article PMC9758056 (2022):

Molecular target: Taxol-stabilized microtubules from bovine tubulin, labeled with Alexa Fluor 488 and biotin, tethered to a … (bovine, UniProt Q6B856 1-445, part of the tubulin biotinylated, part labeled with Alexa Fluor 488 (10% biotin-tubulin and 10% Alexa 488-tubulin) | part of the tubulin biotinylated, part labeled with Alexa Fluor 488 (10% …))
Sequence (chain, as listed by the source, chain 1 of 2): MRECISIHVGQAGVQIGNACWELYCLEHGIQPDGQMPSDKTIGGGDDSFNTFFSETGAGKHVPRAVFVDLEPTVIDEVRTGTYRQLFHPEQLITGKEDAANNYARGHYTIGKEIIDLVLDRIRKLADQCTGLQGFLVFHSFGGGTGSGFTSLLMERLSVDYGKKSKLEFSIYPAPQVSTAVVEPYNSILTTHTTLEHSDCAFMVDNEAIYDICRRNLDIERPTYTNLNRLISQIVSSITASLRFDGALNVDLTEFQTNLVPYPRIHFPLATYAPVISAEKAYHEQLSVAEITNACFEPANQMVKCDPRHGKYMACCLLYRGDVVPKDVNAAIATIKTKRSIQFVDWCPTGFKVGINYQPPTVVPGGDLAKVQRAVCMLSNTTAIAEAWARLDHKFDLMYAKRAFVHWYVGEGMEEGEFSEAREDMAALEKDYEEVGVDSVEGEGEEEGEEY
Sequence (Q6B856 whole entry, chain 2 of 2): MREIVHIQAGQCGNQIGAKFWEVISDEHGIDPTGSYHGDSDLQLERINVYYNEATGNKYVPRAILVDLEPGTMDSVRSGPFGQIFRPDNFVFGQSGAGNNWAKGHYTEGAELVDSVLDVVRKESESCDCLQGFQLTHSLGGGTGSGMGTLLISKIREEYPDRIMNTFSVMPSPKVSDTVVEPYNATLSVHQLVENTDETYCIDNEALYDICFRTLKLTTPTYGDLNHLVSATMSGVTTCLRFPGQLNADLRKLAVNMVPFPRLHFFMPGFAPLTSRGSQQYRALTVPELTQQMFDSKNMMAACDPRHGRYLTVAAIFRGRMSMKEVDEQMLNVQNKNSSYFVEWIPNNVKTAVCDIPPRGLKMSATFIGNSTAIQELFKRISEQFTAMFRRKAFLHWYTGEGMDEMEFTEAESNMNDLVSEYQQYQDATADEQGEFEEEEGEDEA

B1: TMR-LRRK2^RCKW (LRRK2^RCKW randomly labeled with BODIPY TMR-X) (domain or fragment)
chain: KKAVPYNRMKLMIVGNTGSGKTTLLQQLMKTKKSDLGMQSATVGIDVKDWPIQIRDKRKRDLVLNVWDFAGREEFYSTHPHFMTQRALYLAVYDLSKGQAEVDAMKPWLFNIKARASSSPVILVGTHLDVSDEKQRKACMSKITKELLNKRGFPAIRDYHFVNATEESDALAKLRKTIINESLNFKIRDQLVVGQLIPDCYVELEKIILSERKNVPIEFPVIDRKRLLQLVRENQLQLDENELPHAVHFLNESGVLLHFQDPALQLSDLYFVEPKWLCKIMAQILTVKVEGCPKHPKGIISRRDVEKFLSKKRKFPKNYMSQYFKLLEKFQIALPIGEEYLLVPSSLSDHRPVIELPHCENSEIIIRLYEMPYFPMGFWSRLINRLLEISPYMLSGRERALRPNRMYWRQGIYLNWSPEAYCLVGSEVLDNHPESFLKITVPSCRKGCILLGQVVDHIDSLMEEWFPGLLEIDICGEGETLLKKWALYSFNDGEEHQKILLDDLMKKAEEGDLLVNPDQPRLTIPISQIAPDLILADLPRNIMLNNDELEFEQAPEFLLGDGSFGSVYRAAYEGEEVAVKIFNKHTSLRLLRQELVVLCHLHHPSLISLLAAGIRPRMLVMELASKGSLDRLLQQDKASLTRTLQHRIALHVADGLRYLHSAMIIYRDLKPHNVLLFTLYPNAAIIAKIADYGIAQYCCRMGIKTSEGTPGFRAPEVARGNVIYNQQADVYSFGLLLYDILTTGGRIVEGLKFPNEFDELEIQGKLPDPVKEYGCAPWPMVEKLIKQCLKENPQERPTSAQVFDILNSAELVCLTRRILLPKNVIVECMVATHHNSRNASIWLGCGHTDRGQLSFLDLNTEGYTSEEVADSRILCLALVHLPVEKESWIVSGTQSGTLLVINTEDGKKRHTLEKMTDSVTCLYCNSFSKQSKQKNFLLVGTADGKLAIFEDKTVKLKGAAPLKILNIGNVSTPLMCLSESTNSTERNVMWGGCGTKIFSFSNDFTIQKLIETRTSQLFSYAAFSDSNIITVVVDTALYIAKQNSPVVEVWDKKTEKLCGLIDCVHFLREVMVKENKESKHKMSYSGRVKTLCLQKNTALWIGTGGGHILLLDLSTRRLIRVIYNFCNSVRVMMTAQLGSLKNVMLVLGYNRKNTEGTQKQKEIQSCLTVWDINLPHEVQNLEKHIEVRKELAEKMRRTSVE
modifications: BODIPY TMR-X on primary amines, randomly labeled (dye added 1:1)
**Q.** With B1 as the binder, how does the Kd read?
**A.** ~40 nM
